Columns and labels:
Test in all cases: …
[1] = biological target: monomeric enhanced green fluorescent protein (meGFP)
[2] = biological target: DDIT3-GS-DDIT3 synthetic AD (human)
[3] = biological target: MYB-GS-MYB synthetic AD (human)

Kd [1] [µM] | fold change of Kd against single-site DDIT3 [2] [fold] | fold change of Kd against single-site MYB [3] [fold] | Substance
> 100 | – | – | TFIID domain TAF12 (from UniProt Q16514 1-161) (natural protein)
– | < 1.1 | < 1.1 | P300 KIX domain (domain or fragment)

From paper PMC11370418
